Results on 29 substances are retold here after patent US7056679B2, “Target specific screening and its use for identifying target binders” (Antyra, Inc., priority 2001, dated 2006).

The target of one assay is T1, DGI-2 (Homo sapiens, UniProt Q15004).
T1 construct: encompassed the entire DGI-2 open reading frame (ORF); His-tag of vector pIVEX2.3-MCS (inferred from the vector and from the reverse primer lacking a stop codon); made in house; host or cells: cell-free in vitro translation (Rapid Translation System RTS, Roche; E. coli lysate)
T1 sequence (Q15004 1-111): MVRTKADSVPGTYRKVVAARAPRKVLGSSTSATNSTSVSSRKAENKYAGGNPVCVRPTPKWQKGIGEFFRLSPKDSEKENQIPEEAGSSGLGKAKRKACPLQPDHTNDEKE
Put plainly: ELISA analysis of phage on DGI-2 polypeptide (specific binding). As to conditions: for DGI-2 (OD): binding to DGI-2 polypeptide (specific binding), phage ELISA units read at 405 nm; for DGI-2/LDH (OD): ratio of specific binding to non-specific binding. An outline of the steps:
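Recombinant DGI-2 from in vitro translation, LDH (non-specific) and controls were coated at 500 ng/well and blocked with 2% milk-PBS. Phage from individual clones bound for 2 hr at room temperature, then anti-M13-HRP with ABTS was read at 405 nm; a clone counted as positive at ≥2-fold over background.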

The test system of assay [1] is lactate dehydrogenase (LDH). Put plainly: ELISA analysis of phage on LDH (irrelevant, non-specific target). Type of assay: binding. The following applies: peptide binding to LDH polypeptide (non-specific binding); phage ELISA units read at 405 nm. In a few lines: (§1)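 Phage from picked clones (M13KO7 helper) bound 2 hr at room temperature to wells coated overnight at 4 °C with 500 ng/well anti-ETAG antibody or LDH, milk-blocked. Detection with HRP-anti-M13 (1:3000) and ABTS at 405 nm; positive when A405 ≥2-fold over background.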

The test system of the next assay is E-tag antibody. In words: ELISA analysis of phage on antibody raised against ETAG (positive control). As to conditions: peptide binding to E-tag antibody; phage ELISA units read at 405 nm. An outline of the steps:
as §1

“VHSQGRMWAIPGLRGGTGAS (DGI-2-20R-3-D7; listed as Escherichia coli)”: in the assay with DGI-2, the “DGI-2 (OD)” value was determined as 5.2 OD and the “DGI-2/LDH (OD)” value came out at 5.3. In assay [1], the “LDH (OD)” value is given as 1.0 OD. In addition, in the assay on E-tag antibody, the “ETAG (OD)” value was 18.7 OD.
Taken in the same sequence, the figures for “VLCLE#ALGLSGLGWRVVVGP (VLCLEALGLSGLGWRVVVGP; DGI-2-20F-PP-G4; listed as Escherichia coli)” were 2.5 OD, 2.2, 1.1 OD and 25.6 OD.
Taken in the same sequence, the figures for “VLGADAGMIWFMDGCGIRCR (DGI-2-20R-4-E6; listed as Escherichia coli)” were 7.0 OD, 7.0, 1.0 OD and 19.1 OD.
Consider “VLQRSLWKDWVDGVMHGGGSRGV (DGI-2-20R-3-A7; listed as Escherichia coli)”, for which, in the assay with DGI-2, the “DGI-2 (OD)” value was 4.8 OD and the “DGI-2/LDH (OD)” value is 5.1. Besides, the “LDH (OD)” value in assay [1] stood at 0.9 OD. Besides, in the assay on E-tag antibody, the “ETAG (OD)” value is on record as 13.9 OD.
For “VQFAMTLSSRLWQHARHPLTDDAPPTVSFGTRRETLAGKA (DGI-2-40F-3-D3; listed as Escherichia coli)”, in the assay with DGI-2, the “DGI-2 (OD)” value was determined as 0.9 OD and the “DGI-2/LDH (OD)” value is given as 1.1. In addition, the “LDH (OD)” value in assay [1] came to 0.9 OD. For the same substance, the “ETAG (OD)” value in the assay with E-tag antibody is reported as 0.9 OD.
For the substance “VQSGRDLGGLLRGGTGTEASP (DGI-2-20F-PP-D3; listed as Escherichia coli)”, in the assay with DGI-2, the “DGI-2 (OD)” value was determined as 2.2 OD and the “DGI-2/LDH (OD)” value was determined as 2.4. For the same substance, the “LDH (OD)” value in assay [1] is 0.9 OD. In addition, the “ETAG (OD)” value in the assay on E-tag antibody is 15.0 OD.
In the case of “VRAVYSRDAYNEVGRWMRVGI (DGI-2-20F-PP-D9; listed as Escherichia coli)”, in the assay with DGI-2, the “DGI-2 (OD)” value is 2.9 OD and the “DGI-2/LDH (OD)” value came out at 2.9. Besides, the “LDH (OD)” value in assay [1] was found to be 1.0 OD. For the same substance, the “ETAG (OD)” value with E-tag antibody worked out at 9.0 OD.
Turning to “VSFAHDWGRWWYQWEVG (DGI-2-20R-4-G22; listed as Escherichia coli)”, in the assay with DGI-2, the “DGI-2 (OD)” value is on record as 7.9 OD and the “DGI-2/LDH (OD)” value is recorded as 6.5. Moreover, the “LDH (OD)” value in assay [1] is reported as 1.2 OD. Besides, in the assay on E-tag antibody, the “ETAG (OD)” value amounted to 12.9 OD.
Taken in the same sequence, the figures for “VSGVPDGSMRAAQLASGYWC (DGI-2-20F-PP-G2; listed as Escherichia coli)” were 2.4 OD, 2.1, 1.1 OD and 5.6 OD.
As to “VSGY#SLWWCGPGWGPRSGR (VSGYSLWWCGPGWGPRSGR; DGI-2-20F-PP-H11; listed as Escherichia coli)”, in the assay with DGI-2, the “DGI-2 (OD)” value is given as 1.6 OD and the “DGI-2/LDH (OD)” value came to 2.0. The “LDH (OD)” value in assay [1] is 0.8 OD. The “ETAG (OD)” value with E-tag antibody was found to be 2.1 OD.
Taken in the same sequence, the figures for “VTGTRFRGFAVACVRMGTWH (DGI-2-20F-PP-F2; listed as Escherichia coli)” were 2.4 OD, 2.5, 1.0 OD and 1.9 OD.
For the substance “VVGYAQGDGLEGGLGSSRDGS (DGI-2-20F-PP-D8; listed as Escherichia coli)”, in the assay with DGI-2, the “DGI-2 (OD)” value turned out to be 2.3 OD and the “DGI-2/LDH (OD)” value is given as 2.2. For the same substance, in assay [1], the “LDH (OD)” value was determined as 1.1 OD. In addition, the “ETAG (OD)” value in the assay on E-tag antibody was determined as 2.6 OD.
Taken in the same sequence, the figures for “VVHTRAWGSWAYGFVLRNRG (DGI-2-20F-PP-F10; listed as Escherichia coli)” were 3.5 OD, 2.8, 1.3 OD and 42.5 OD.
As to “VVRQGCMAFSGLCSGVTESE (DGI-2-20R-3-C8; listed as Escherichia coli)”, in the assay with DGI-2, the “DGI-2 (OD)” value is 5.6 OD and the “DGI-2/LDH (OD)” value is on record as 5.3. In assay [1], the “LDH (OD)” value stood at 1.1 OD. Also, the “ETAG (OD)” value in the assay with E-tag antibody was 21.1 OD.
Taken in the same sequence, the figures for “VWAAWVEGSLLSPRQEPVRD (DGI-2-20R-4-G4; listed as Escherichia coli)” were 10.2 OD, 9.8, 1.0 OD and 13.6 OD.
Taken in the same sequence, the figures for “VWRDWVNGTVGLRNREKPGV (DGI2-20R-3-A5; listed as Escherichia coli) [DGI-2-20R-3-A5]” were 10.9 OD, 9.8, 1.1 OD and 14.9 OD.
Taken in the same sequence, the figures for “WAASCFWGHVALGCGRNGQG (DGI-2-20R-3-A11; listed as Escherichia coli)” were 6.2 OD, 5.7, 1.1 OD and 14.7 OD.
For the substance “WAGSTDLWQLWSLWVKPELR (DGI-2-20F-3-B7; listed as Escherichia coli)”, in the assay with DGI-2, the “DGI-2 (OD)” value stood at 1.6 OD and the “DGI-2/LDH (OD)” value is listed as 1.6. Further, the “LDH (OD)” value in assay [1] came out at 0.9 OD. Besides, the “ETAG (OD)” value in the assay with E-tag antibody is 16.4 OD.
Taken in the same sequence, the figures for WEVGQVEKFSRGVGGWWPTG [DGI-2-20R-3-D3] were 8.3 OD, 8.3, 1.0 OD and 16.8 OD.
Taken in the same sequence, the figures for WFTHVVEKIF [DGI-2-40F-3-A4] were 1.1 OD, 1.3, 0.8 OD and 6.7 OD.
Taken in the same sequence, the figures for “WGCVFRQWASGSGAGCARRH (DGI-2-20R-3-D9; listed as Escherichia coli)” were 6.7 OD, 6.4, 1.0 OD and 19.7 OD.
As for “WRARSSGYLFALTPNFGVPHIPSSALRRMH.GLMARDLRPV [DGI-2-40F-3-C10]”, in the assay with DGI-2, the “DGI-2 (OD)” value was determined as 1.1 OD and the “DGI-2/LDH (OD)” value worked out at 1.3. For the same substance, the “LDH (OD)” value in assay [1] came out at 0.9 OD. For the same substance, the “ETAG (OD)” value in the assay on E-tag antibody came to 7.7 OD.
Take “WVVALRRIRLGLRRGVECLL (DGI-2-20F-PP-D5; listed as Escherichia coli)”: in the assay with DGI-2, the “DGI-2 (OD)” value is 2.7 OD and the “DGI-2/LDH (OD)” value turned out to be 2.3. Besides, the “LDH (OD)” value in assay [1] is listed as 1.2 OD. Further, the “ETAG (OD)” value in the assay with E-tag antibody was 33.6 OD.
Consider “WWERFVWGRPVDDGVVVMAT (DGI-2-20R-3-B1; listed as Escherichia coli)”, for which, in the assay with DGI-2, the “DGI-2 (OD)” value turned out to be 6.3 OD and the “DGI-2/LDH (OD)” value is reported as 6.2. Moreover, the “LDH (OD)” value in assay [1] was found to be 1.0 OD. Besides, in the assay with E-tag antibody, the “ETAG (OD)” value is 14.5 OD.
In the case of “WWREWVDGSLRGGGGTVLKD (DGI-2-20R-3-A122; listed as Escherichia coli)”, in the assay with DGI-2, the “DGI-2 (OD)” value was found to be 9.6 OD and the “DGI-2/LDH (OD)” value is 9.4. Besides, the “LDH (OD)” value in assay [1] was found to be 1.0 OD. Further, the “ETAG (OD)” value with E-tag antibody amounted to 15.1 OD.
Taken in the same sequence, the figures for “YAMSSRECGIRNSGLILSMW (DGI-2-20F-PP-C9; listed as Escherichia coli)” were 3.5 OD, 3.9, 0.9 OD and 31.6 OD.
Taken in the same sequence, the figures for “YDQVWNSLLAAVLGGQELVN (DGI-2-20F-3-D112; listed as Escherichia coli)” were 1.4 OD, 1.4, 1.0 OD and 19.9 OD.
Taken in the same sequence, the figures for “YGTAGLFLRRACTMSDPGDPLGRRGYTGWGVLWDEWVTGS (DGI-2-40F-3-C8; listed as Escherichia coli)” were 5.7 OD, 6.0, 0.9 OD and 13.6 OD.
With “YTPASILTGFQRGYEGAGNG (DGI-2-20R-4-G7; listed as Escherichia coli)”, in the assay with DGI-2, the “DGI-2 (OD)” value is 4.7 OD and the “DGI-2/LDH (OD)” value came out at 3.9. For the same substance, the “LDH (OD)” value in assay [1] is reported as 1.2 OD. Further, in the assay with E-tag antibody, the “ETAG (OD)” value is 11.6 OD.
